In data set [1] the target is Trypanosoma brucei cytidine deaminase (recombinant His tag fusion protein) (Trypanosoma brucei brucei (427 strain)). Put plainly: SEC; gel filtration of purified recombinant TbCDA on Superdex 200, 50 mM phosphate buffer (pH 7.4) plus 150 mM NaCl, calibrated with molecular weight markers; 500 ul injected.
Substrate in data set [2]: Cc1cn([C@H]2C[C@H](O)[C@@H](CO)O2)c(=O)nc1N
Kind of data set: purified protein. In kind it is biochemical, Trypanosoma brucei. The conditions noted are these: 50 mM Tris-HCl pH 7.5, 1 mM DTT, 0.125 μM enzyme.

Substrate in data set [3]: Nc1ccn([C@@H]2O[C@H](CO)[C@@H](O)[C@H]2O)c(=O)n1
Kind of data set: purified protein. In kind it is biochemical, Trypanosoma brucei. The conditions noted are these: 50 mM Tris-HCl pH 7.5, 1 mM DTT, 0.125 μM enzyme.

Substrate in data set [4]: Nc1ccn([C@H]2C[C@H](O)[C@@H](CO)O2)c(=O)n1
Kind of data set: purified protein. In kind it is biochemical, Trypanosoma brucei. The conditions noted are these: 50 mM Tris-HCl pH 7.5, 1 mM DTT, 0.125 μM enzyme.

With “Trypanosoma brucei cytidine deaminase (recombinant His tag fusion protein) (enzyme)”, in data set [1], the stoichiometry N amounted to 4.

B1: TbCDA (Trypanosoma brucei brucei TREU927) (protein)
chain: MQCSSLKTGCLKLLSQLPEGLQQAGRTAVSAHQRSYCPYSNFAVGAALLHDDGKVTSGCNYETCVYKGTCAEACAIVKANMDGYRTAQAVAIYGRSVLPTAAAAAADATVPPCGFCRQLLAEVADLSGNMNDFLVVLVTFDQEHARLFRLSELLPQPFGPSSIGMDVAALATGEHSRCPGTF
As for B1, in “purified protein [2]”, the Km amounted to 24.5 ± 3.3 µM, the maximal velocity (Vmax) turned out to be 5.9 µmol/min/mg, the catalytic constant (kcat) was 2.09 ± 0.08 s⁻¹ and the kcat/Km is 85000 M⁻¹ s⁻¹. In the data set “purified protein [3]”, the Michaelis-Menten constant (Km) came out at 199.5 ± 9.0 µM, the Vmax came out at 126 µmol/min/mg, the kcat is 44.8 ± 1.2 s⁻¹ and the kcat/Km stood at 225000 M⁻¹ s⁻¹. Further, in the data set “purified protein [4]”, the Michaelis-Menten constant (Km) came to 52.3 ± 4.5 µM, the Vmax was 34.9 µmol/min/mg, the catalytic constant (kcat) was 12.4 ± 0.293 s⁻¹ and the catalytic efficiency (kcat/Km) worked out at 238000 M⁻¹ s⁻¹.

The record behind these values is article PMC6686228, “Contribution of Cytidine Deaminase to Thymidylate Biosynthesis in Trypanosoma brucei: Intracellular Localization and Properties of the Enzyme” (mSphere, 2019).
